Source: patent publication US20220409550A1 (KOREA INSTITUTE OF SCIENCE AND TECHNOLOGY, published 2022)

Biological target: murine PD-L1 on CHO-K1 cells (murine, UniProt Q9EP73 19-290)
Test: cell-based or functional assay

Sequence of murine PD-L1 on CHO-K1 cells (Q9EP73 19-290): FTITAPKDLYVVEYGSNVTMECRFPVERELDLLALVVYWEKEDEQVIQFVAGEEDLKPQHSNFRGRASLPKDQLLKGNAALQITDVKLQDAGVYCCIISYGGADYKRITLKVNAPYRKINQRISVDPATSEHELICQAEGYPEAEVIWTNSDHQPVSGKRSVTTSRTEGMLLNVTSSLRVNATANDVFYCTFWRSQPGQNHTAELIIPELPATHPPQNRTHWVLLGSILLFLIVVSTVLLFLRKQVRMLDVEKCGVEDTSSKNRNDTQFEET

B1: monomeric form of soluble PD-1 (sPD-1) of the ecto-domain of murine PD-1 (receptor)
chain: MHHHHHHLEVPNGPWRSLTFYPAWLTVSEGANATFTCSLSNWSEDLMLNWNRLSPSNQTEKQAAFCNGLSQPVQDARFQIIQLPNRHDFHMNILDTRRNDSGIYLCGAISLHPKAKIEESPGAELVVT
  half maximal effective concentration (EC50), NFAT-mediated luciferase expression, bioluminescent PD-1/PD-L1 blockade bioassay: 0.457 µM
